The target of test [1] is T1, Human complement Factor D, mature (human, UniProt P00746 27-253). The test can be described thus: cell-based or functional assay.
Target sequence in this assay (P00746 27-253): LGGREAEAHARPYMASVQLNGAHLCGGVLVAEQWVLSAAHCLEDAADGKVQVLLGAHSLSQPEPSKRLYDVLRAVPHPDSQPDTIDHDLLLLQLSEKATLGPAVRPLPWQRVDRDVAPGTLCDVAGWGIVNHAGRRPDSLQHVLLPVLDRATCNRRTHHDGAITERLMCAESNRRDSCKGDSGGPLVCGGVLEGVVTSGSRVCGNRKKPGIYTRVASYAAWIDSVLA
In test [2] the target is T1, Human complement Factor D, mature. Put plainly: SPR (Biacore T200): Fab captured with anti-huFab kit, human Factor D injected, 25 C, 1:1 model.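 Note: sensorgrams were corrected by subtracting a blank injection of running buffer before fitting kinetic and affinity constants.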 Background: Surface plasmon resonance follows binding to a sensor surface in real time, without labels.
Description: (§1) Kinetics and binding constant KD for Factor D binding to immobilized hu20D12 versions was determined by surface plasmon resonance (SPR) measurements on a Biacore®T200 instrument. […] After subtraction of the sensorgram observed for injection of running buffer, data were analyzed according to a 1:1 model using BiaEval software v4.1 (GE Healthcare) to extract the kinetics and affinity constants.
For test [3] the target is unchanged. The test can be described thus: SPR, at the limit of detection.
Target sequence in this assay (P00746 27-253): as above
Description: as §1
The target is the same in test [4]. The test can be described thus: cell-based or functional assay. The source holds these as a separate data set.
In test [5] the target is T2, Cynomolgus monkey complement Factor D (cynomolgus monkey, UniProt P00746 26-253 (human entry)).
T2 construct: also called cyfD; cFD
T2 chain: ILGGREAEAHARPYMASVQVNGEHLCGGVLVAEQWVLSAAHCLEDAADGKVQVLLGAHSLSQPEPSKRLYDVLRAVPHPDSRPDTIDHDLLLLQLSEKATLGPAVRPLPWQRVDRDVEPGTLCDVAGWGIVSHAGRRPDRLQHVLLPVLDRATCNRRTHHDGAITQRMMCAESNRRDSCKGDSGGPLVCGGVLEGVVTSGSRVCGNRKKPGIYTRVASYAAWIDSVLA
The test can be described thus: SPR (Biacore T200), Fab format; cynomolgus Factor D (column 'KD (pM) cFD (cyno)').

As a reminder, the Kd is the constant that tells how readily two partners part at equilibrium. One may read the koff as a measure of how fast the partners let go of each other. The term kon denotes a measure of how fast the partners come together.

B1: hu20D12.v2.3.C + PEG tetramer (Fab, V domains shown)
VH: EVQLVQSGAEVKKPGASVKVSCKASGYTFTSYYMYWVRQAPGQGLEWIGEINPYSGDTNFNEKFKSRATLTVDTSTSTAYLELSSLRSEDTAVYYCAREGGFAYWGQGTLVTVSS
VL: DIQMTQSPSSLSASVGDRVTITCKASQNVDTDVAWFQQKPGKAPKGLIRSASSRYSGVPSRFSGSGSGTDFTLTISSLQPEDFATYYCQQYNNYPLTFGQGTKVEIKR
modifications: C-terminal Cys linked through maleimide to 40K-tetramer-PEG (Sunbright PTE-400MA)
Take B1: in test [1], the “AVG IC50 (pM), TR-FRET assay of Factor D-dependent factor B activation” value (“AVG IC50 (pM), TR-FRET assay” below) was found to be 35.2 pM.

B2: hu20D12.v2.9 Fab (Fab, V domains shown)
VH: EVQLVQSGAEVKKPGASVKVSCKASGYTFTSYYMYWVRQAPGQGLEWIGWINPTSGGTNFNEKFKSRATLTVDTSTSTAYLELSSLRSEDTAVYYCAREGGFAYWGQGTLVTVSS
VL: DIQMTQSPSSLSASVGDRVTITCKASQNVDTDVAWFQQKPGKAPKGLIYSASSRYSGVPSRFSGSGSGTDFTLTISSLQPEDFATYYCQQYNNYPLTFGQGTKVEIKR
Take B2: in test [2], the Kd stood at 0.185 nM, the koff came to 0.0063 s⁻¹ and the kon amounted to 3.4e+07 M⁻¹ s⁻¹.

B3: hu20D12.v2.13 Fab (Fab, V domains shown)
VH: EVQLVQSGAEVKKPGASVKVSCKASGYTFTSYYMYWVRQAPGQGLEWIGEINPTSGGTNFNEKFKSRATLTVDTSTSTAYLELSSLRSEDTAVYYCAREGGFAYWGQGTLVTVSS
VL: DIQMTQSPSSLSASVGDRVTITCKASQNVDTDVAWFQQKPGKAPKGLIRSASSRYSGVPSRFSGSGSGTDFTLTISSLQPEDFATYYCQQYENYPLTFGQGTKVEIKR
B3 showed a Kd in test [3] of roughly 0.01 nM. In test [2], this molecule yielded a Kd of less than 0.01 nM, a koff of 0.00013 s⁻¹ and an on-rate constant (kon) of 4.1e+07 M⁻¹ s⁻¹.

B4: hu20D12.v2.11 Fab (Fab, V domains shown)
VH: EVQLVQSGAEVKKPGASVKVSCKASGYTFTSYYMYWVRQAPGQGLEWIGEINPTSGGTNFNEKFKSRATLTVDTSTSTAYLELSSLRSEDTAVYYCAREGGFAYWGQGTLVTVSS
VL: DIQMTQSPSSLSASVGDRVTITCKASQNVDTDVAWFQQKPGKAPKGLIYSASSRRSGVPSRFSGSGSGTDFTLTISSLQPEDFATYYCQQYNNYPLTFGQGTKVEIKR
In test [2], B4 came in with a Kd of 10 nM, a koff of 0.03 s⁻¹ and a kon of 3e+06 M⁻¹ s⁻¹.

B5: hu20D12.v2.6 Fab (Fab, V domains shown)
VH: EVQLVQSGAEVKKPGASVKVSCKASGYTFTSYYMYWVRQAPGQGLEWIGEINPTSGGTNFNEKFKSRATLTVDTSTSTAYLELSSLRSEDTAVYYCAREGGFAYWGQGTLVTVSS
VL: DIQMTQSPSSLSASVGDRVTITCKASQNVDTDVAWFQQKPGKAPKGLISSASSRYSGVPSRFSGSGSGTDFTLTISSLQPEDFATYYCQQYNNYPLTFGQGTKVEIKR
In test [2], B5 returned a Kd of 0.143 nM, an off-rate (koff) of 0.0003 s⁻¹ and a kon of 2.1e+06 M⁻¹ s⁻¹.

B6: hu20D12.v2.8 Fab (Fab, V domains shown)
VH: EVQLVQSGAEVKKPGASVKVSCKASGYTFTSYYMYWVRQAPGQGLEWIGEINPTSGGTNFNEKFKSRATLTVDTSTSTAYLELSSLRSEDTAVYYCAREGGFAYWGQGTLVTVSS
VL: DIQMTQSPSSLSASVGDRVTITCKASQNVDTDVAWFQQKPGKAPKGLIQSASSRYSGVPSRFSGSGSGTDFTLTISSLQPEDFATYYCQQYNNYPLTFGQGTKVEIKR
With B6, in test [2], the Kd was 0.061 nM, the koff was determined as 0.004 s⁻¹ and the kon stood at 6.6e+07 M⁻¹ s⁻¹.

B7: hu20D12.v2.12 Fab (Fab, V domains shown)
VH: EVQLVQSGAEVKKPGASVKVSCKASGYTFTSYYMYWVRQAPGQGLEWIGEINPYSGGTNFNEKFKSRATLTVDTSTSTAYLELSSLRSEDTAVYYCAREGGFAYWGQGTLVTVSS
VL: DIQMTQSPSSLSASVGDRVTITCKASQNVDTDVAWFQQKPGKAPKGLIRSASSRYSGVPSRFSGSGSGTDFTLTISSLQPEDFATYYCQQYNNYPLTFGQGTKVEIKR
In turn, B7 had a dissociation constant (Kd) in test [3] of roughly 0.01 nM. In test [2], this molecule displayed a Kd of less than 0.01 nM, a koff of 0.00015 s⁻¹ and a kon of 1.8e+07 M⁻¹ s⁻¹.

B8: hu20D12.v2.7 Fab (Fab, V domains shown)
VH: EVQLVQSGAEVKKPGASVKVSCKASGYTFTSYYMYWVRQAPGQGLEWIGEINPTSGGTNFNEKFKSRATLTVDTSTSTAYLELSSLRSEDTAVYYCAREGGFAYWGQGTLVTVSS
VL: DIQMTQSPSSLSASVGDRVTITCKASQNVDTDVAWFQQKPGKAPKGLIKSASSRYSGVPSRFSGSGSGTDFTLTISSLQPEDFATYYCQQYNNYPLTFGQGTKVEIKR
In test [2], B8 returned a Kd of 0.049 nM, a koff of 0.00055 s⁻¹ and a kon of 1.1e+07 M⁻¹ s⁻¹.

B9: hu20D12.v2.2 Fab (Fab, V domains shown)
VH: EVQLVQSGAEVKKPGASVKVSCKASGYTFTSYYMYWVRQAPGQGLEWIGEINPTSGDTNFNEKFKSRATLTVDTSTSTAYLELSSLRSEDTAVYYCAREGGFAYWGQGTLVTVSS
VL: DIQMTQSPSSLSASVGDRVTITCKASQNVDTDVAWFQQKPGKAPKGLIYSASSRYSGVPSRFSGSGSGTDFTLTISSLQPEDFATYYCQQYNNYPLTFGQGTKVEIKR
In test [2], B9 registered a Kd of 0.065 nM, a koff of 0.00095 s⁻¹ and a kon of 1.5e+07 M⁻¹ s⁻¹.

B10: hu20D12.v2.5 Fab (Fab, V domains shown)
VH: EVQLVQSGAEVKKPGASVKVSCKASGYTFTSYYMYWVRQAPGQGLEWIGEINPYSGGTNFNEKFKSRATLTVDTSTSTAYLELSSLRSEDTAVYYCAREGGFAYWGQGTLVTVSS
VL: DIQMTQSPSSLSASVGDRVTITCKASQNVDTDVAWFQQKPGKAPKGLIYSASSRYSGVPSRFSGSGSGTDFTLTISSLQPEDFATYYCQQYNNYPLTFGQGTKVEIKR
Regarding B10, in test [2], binding was characterised by a dissociation constant (Kd) of 0.045 nM, the koff was 0.00079 s⁻¹ and the kon came to 1.7e+07 M⁻¹ s⁻¹.

B11: hu20D12.v2.10 Fab (Fab, V domains shown)
VH: EVQLVQSGAEVKKPGASVKVSCKASGYTFTSYYMYWVRQAPGQGLEWIGEINPTSGGTNFNEKFKSRATLTVDTSTSTAYLELSSLRSEDTAVYYCAREGGFAYWGQGTLVTVSS
VL: DIQMTQSPSSLSASVGDRVTITCKASQNVDTDVAWFQQKPGKAPKGLIYSASSRKSGVPSRFSGSGSGTDFTLTISSLQPEDFATYYCQQYNNYPLTFGQGTKVEIKR
As to B11, in test [2], the Kd amounted to 6 nM, the off-rate constant (koff) turned out to be 0.03 s⁻¹ and the kon came to 5e+06 M⁻¹ s⁻¹.

B12: hu20D12.v2.4 Fab (Fab, V domains shown)
VH: EVQLVQSGAEVKKPGASVKVSCKASGYTFTSYYMYWVRQAPGQGLEWIGEINPTSGETNFNEKFKSRATLTVDTSTSTAYLELSSLRSEDTAVYYCAREGGFAYWGQGTLVTVSS
VL: DIQMTQSPSSLSASVGDRVTITCKASQNVDTDVAWFQQKPGKAPKGLIYSASSRYSGVPSRFSGSGSGTDFTLTISSLQPEDFATYYCQQYNNYPLTFGQGTKVEIKR
With B12, in test [2], the Kd is 0.028 nM, the koff amounted to 0.00049 s⁻¹ and the kon turned out to be 1.7e+07 M⁻¹ s⁻¹.

B13: AFD.v8.C + PEG tetramer (Fab, V domains shown)
VH: EVQLVQSGPELKKPGASVKVSCKASGYTFTNYGMNWVRQAPGQGLEWMGWINTYTGETTYAEDFKGRFVFSLDTSVSTAYLQISSLKAEDTAVYYCEREGGVNNWGQGTLVTVSS
VL: DIQVTQSPSSLSASVGDRVTITCITSTSIESDMNWYQQKPGKVPKLLISGGNTLRPGVPSRFSGSGSGTDFTLTISSLQPEDVATYYCLQSDSLPYTFGQGTKVEIKR
modifications: C-terminal Cys linked through maleimide to 40K-tetramer-PEG (Sunbright PTE-400MA)
Regarding B13, in test [1], the “AVG IC50 (pM), TR-FRET assay” value was found to be 11 pM.

B14: AFD.v14.C + PEG tetramer (Fab, V domains shown)
VH: EVQLVQSGPELKKPGASVKVSCKASGYTFTNYGMNWVRQAPGQGLEWMGWINTYTGETTYAEDFKGRFVFSLDTSVSTAYLQISSLKAEDTAVYYCEREGGVSNWGQGTLVTVSS
VL: DIQVTQSPSSLSASVGDRVTITCITSTSIESDMNWYQQKPGKVPKLLISGGNTLRPGVPSRFSGSGSGTDFTLTISSLQPEDVATYYCLQSDSLPYTFGQGTKVEIKR
modifications: C-terminal Cys linked through maleimide to a PEG tetramer
As to B14, the “AVG IC50 (pM), TR-FRET assay” value in test [1] was determined as 14.8 pM.

B15: AFD.v8 Fab (Fab, V domains shown)
VH: EVQLVQSGPELKKPGASVKVSCKASGYTFTNYGMNWVRQAPGQGLEWMGWINTYTGETTYAEDFKGRFVFSLDTSVSTAYLQISSLKAEDTAVYYCEREGGVNNWGQGTLVTVSS
VL: DIQVTQSPSSLSASVGDRVTITCITSTSIESDMNWYQQKPGKVPKLLISGGNTLRPGVPSRFSGSGSGTDFTLTISSLQPEDVATYYCLQSDSLPYTFGQGTKVEIKR
notes: Variant of lampalizumab
Turning to B15, the “AVG IC50 (pM), TR-FRET assay” value in test [1] worked out at 27.6 pM. Also, in test [4], the “FRET IC50 (TR-FRET assay of Factor D-dependent factor B activation), value 1 of 2 in the cell” value came out at 0.021 nM and the “FRET IC50 (TR-FRET assay of Factor D-dependent factor B activation), value 2 of 2 in the cell” value was found to be 0.028 nM. In test [5], this molecule had a Kd of 0.024 nM. In test [2], this molecule came in with a dissociation constant (Kd) of 0.0105 nM, a koff of 0.00021 s⁻¹ and a kon of 2e+07 M⁻¹ s⁻¹.

B16: Lampalizumab (Fab, V domains shown)
VH: EVQLVQSGPELKKPGASVKVSCKASGYTFTNYGMNWVRQAPGQGLEWMGWINTYTGETTYADDFKGRFVFSLDTSVSTAYLQISSLKAEDTAVYYCEREGGVNNWGQGTLVTVSS
VL: DIQVTQSPSSLSASVGDRVTITCITSTDIDDDMNWYQQKPGKVPKLLISGGNTLRPGVPSRFSGSGSGTDFTLTISSLQPEDVATYYCLQSDSLPYTFGQGTKVEIKR
notes: Humanized anti-Factor D Fab fragment; also called aFD.WT; FCFD4515S
With B16, the Kd in test [5] is 0.03 nM.

For the origin of these results see US20170145112A1 (Genentech, published 2017).
